The source of these data is paper PMC3926955 (The Journal of Cell Biology, 2014).

The target of the assay is T1, GST-Pex3ΔN (aa 41–455, cytosolic domain) (P. pastoris, UniProt Q92262 41-455).
T1 sequence (looked up): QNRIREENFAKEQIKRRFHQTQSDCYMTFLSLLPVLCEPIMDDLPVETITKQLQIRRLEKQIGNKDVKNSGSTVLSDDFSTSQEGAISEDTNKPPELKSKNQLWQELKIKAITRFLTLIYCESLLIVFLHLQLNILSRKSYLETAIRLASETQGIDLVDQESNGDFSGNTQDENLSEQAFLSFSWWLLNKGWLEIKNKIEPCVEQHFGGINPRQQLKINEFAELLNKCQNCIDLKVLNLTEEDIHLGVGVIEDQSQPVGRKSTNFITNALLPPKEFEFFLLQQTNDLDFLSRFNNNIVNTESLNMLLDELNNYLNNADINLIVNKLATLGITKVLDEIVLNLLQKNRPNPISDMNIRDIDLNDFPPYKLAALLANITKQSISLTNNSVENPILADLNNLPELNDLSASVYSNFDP
Nature of the assay: pull-down.

Substitutions are numbered along the chain they refer to. In names and notes the source's numbering stands.

B1: His-Atg37ΔC (WT) (domain or fragment, P. pastoris, UniProt C4R8D7 1-278, looked up)
chain: MSESIDRVFVKAIGTIRTLSSRTGYGGLPRPPIENRVKLYGLYKQATEGDVAGVMERPLGDSPEAEAAKRKWDAWRSEQGTSKTEAKRQYISYLIDTMKQFASDTTEARELLSELEYLWNQISDVSPNDSSDSESNAGPAQLLQNHAQLLSRDISVVDDPITSSGMDPMYNPSFQRHNSSRFINASTAERLNSLSNYYSNLNPTPPLSSRRYQGSVTPRNVDFIKWQNDINNSINKLNHDLQLLANRRLQSSASDPLYSKRGSDLTHDDFVNDISSSS
For B1, the binding result is “binds”.

B2: His-Atg37ΔC acbs mutant (Y40F K44A) (domain or fragment, P. pastoris, UniProt C4R8D7 1-278, looked up)
chain: B1 chain with Y40F, K44A
As for B2, the binding result is “binds”.
